Starred links: 1 amine or outer side, 2 acyl side, 3 side chain; linkers in the order of their positions; H or OH if unused. Positions of bridges follow the written chain, without caps; N, C: chain ends. Non-standard residues stand in square brackets, D forms with d. Primed or numbered codes have the meaning given here. PyrS2″ = (S)-3-amino-1-((pent-4-en-1-yloxy)carbonyl)pyrrolidine-3-carboxylic acid (stapling residue), C=CCCCOC(=O)N1CC[C@@](N[*:1])(C(=O)[*:2])C1; RdN″ = (R)-4-(((allyloxy)carbonyl)(methyl)amino)-2-amino-2-methylbutanoic acid (stapling residue), C=CCOC(=O)N(C)CC[C@@](C)(N[*:1])C(=O)[*:2]; B5(16) = 2-amino-2-(pent-4-en-1-yl)hept-6-enoic acid = 2,2-bis(4-pentenyl)glycine (stitching residue), C=CCCCC(CCCC=C)(N[*:1])C(=O)[*:2]; B5(4) = 2,2-bis(4-pentenyl)glycine = 2-amino-2-(pent-4-en-1-yl)hept-6-enoic acid (stitching residue), C=CCCCC(CCCC=C)(N[*:1])C(=O)[*:2]; B5(5) = 2,2-bis(4-pentenyl)glycine, 2-amino-2-(pent-4-en-1-yl)hept-6-enoic acid (stitching residue), C=CCCCC(CCCC=C)(N[*:1])C(=O)[*:2]; PyrS2 = (S)-3-amino-1-((pent-4-en-1-yloxy)carbonyl)pyrrolidine-3-carboxylic acid, C=CCCCOC(=O)N1CC[C@@](N[*:1])(C(=O)[*:2])C1; RdN = (R)-4-(((allyloxy)carbonyl)(methyl)amino)-2-amino-2-methylbutanoic acid, C=CCOC(=O)N(C)CC[C@@](C)(N[*:1])C(=O)[*:2]; B5(19) = 2-amino-2-(pent-4-en-1-yl)hept-6-enoic acid (bis(4-pentenyl)glycine), C=CCCCC(CCCC=C)(N[*:1])C(=O)[*:2]; B5(3) = 2,2-bis(4-pentenyl)glycine (stitching residue), C=CCCCC(CCCC=C)(N[*:1])C(=O)[*:2]; Phe(4-COOH) = N[C@@H](Cc1ccc(C(=O)O)cc1)C(=O)O; Trp(7-F) = N[C@@H](Cc1c[nH]c2c(F)cccc12)C(=O)O; S7 = C[C@@](CCCCCC=[*:3])(N[*:1])C(=O)[*:2]; 2Nal = N[C@@H](Cc1ccc2ccccc2c1)C(=O)O; Bta = N[C@@H](Cc1csc2ccccc12)C(=O)O; αAllylPro = C=CC[C@@]1(C(=O)O)CCCN1; tBuAla = CC(C)(C)C[C@H](N)C(=O)O; 3Thi = N[C@@H](Cc1ccsc1)C(=O)O; Cit = NC(=O)NCCC[C@H](N)C(=O)O; S8 = C=CCCCCCC[C@](C)(N)C(=O)O; Aib = CC(C)(N)C(=O)O
T1: B-cat-Halo (UniProt P35222 1-781)
T1 sequence (looked up): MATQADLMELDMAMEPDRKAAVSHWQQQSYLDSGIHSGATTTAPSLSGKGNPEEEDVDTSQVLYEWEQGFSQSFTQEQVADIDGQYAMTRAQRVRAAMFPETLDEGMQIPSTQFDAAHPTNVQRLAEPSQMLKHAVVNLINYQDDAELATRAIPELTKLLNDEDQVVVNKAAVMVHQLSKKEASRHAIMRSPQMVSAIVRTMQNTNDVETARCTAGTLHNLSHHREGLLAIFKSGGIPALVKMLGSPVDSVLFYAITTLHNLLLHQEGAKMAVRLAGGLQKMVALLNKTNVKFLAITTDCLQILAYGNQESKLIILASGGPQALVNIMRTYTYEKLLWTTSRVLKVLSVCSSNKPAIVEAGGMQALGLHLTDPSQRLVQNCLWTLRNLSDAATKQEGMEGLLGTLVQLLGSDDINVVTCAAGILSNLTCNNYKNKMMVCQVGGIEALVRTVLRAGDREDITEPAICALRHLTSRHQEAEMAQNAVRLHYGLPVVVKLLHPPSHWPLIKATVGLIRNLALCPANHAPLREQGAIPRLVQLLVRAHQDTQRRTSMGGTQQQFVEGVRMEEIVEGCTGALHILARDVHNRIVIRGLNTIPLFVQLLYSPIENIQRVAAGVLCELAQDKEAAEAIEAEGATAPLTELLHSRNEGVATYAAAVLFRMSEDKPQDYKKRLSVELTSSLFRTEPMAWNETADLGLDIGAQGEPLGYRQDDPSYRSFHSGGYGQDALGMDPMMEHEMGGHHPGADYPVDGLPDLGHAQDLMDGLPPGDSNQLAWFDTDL

T2: full-length beta-Catenin (Uniprot ID P35222) (Homo sapiens (Human), UniProt P35222 2-781)
T2 construct: the AlphaScreen assay uses a Histidine (Nickel Chelate) detection kit, so a His tag is likely there; also called B-Catenin; bCat
T2 sequence: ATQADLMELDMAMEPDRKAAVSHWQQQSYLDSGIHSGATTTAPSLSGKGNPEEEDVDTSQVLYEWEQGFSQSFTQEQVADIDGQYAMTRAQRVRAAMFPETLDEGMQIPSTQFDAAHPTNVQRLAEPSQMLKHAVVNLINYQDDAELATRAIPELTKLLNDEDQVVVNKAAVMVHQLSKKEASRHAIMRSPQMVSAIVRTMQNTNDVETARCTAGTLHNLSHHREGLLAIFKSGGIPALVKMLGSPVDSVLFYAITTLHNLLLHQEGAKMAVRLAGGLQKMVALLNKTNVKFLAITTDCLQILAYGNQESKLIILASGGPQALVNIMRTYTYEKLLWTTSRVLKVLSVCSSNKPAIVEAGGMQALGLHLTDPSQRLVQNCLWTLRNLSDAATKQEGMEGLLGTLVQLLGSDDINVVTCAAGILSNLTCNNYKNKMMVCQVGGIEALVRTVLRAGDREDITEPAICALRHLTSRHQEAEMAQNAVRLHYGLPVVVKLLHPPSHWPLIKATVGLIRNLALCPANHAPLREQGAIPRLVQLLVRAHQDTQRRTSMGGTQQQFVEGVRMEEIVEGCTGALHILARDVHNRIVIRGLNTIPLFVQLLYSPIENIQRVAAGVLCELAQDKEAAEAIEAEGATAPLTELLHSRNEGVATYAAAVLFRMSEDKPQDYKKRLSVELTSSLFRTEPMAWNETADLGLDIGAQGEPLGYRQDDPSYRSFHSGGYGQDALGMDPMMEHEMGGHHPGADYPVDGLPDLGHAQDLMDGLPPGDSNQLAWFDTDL


Experiments:
B-cat-Halo = target: T1, B-cat-Halo; test: cell-based or functional assay
[1] = target: T2, full-length beta-Catenin (Uniprot ID …); test: AlphaScreen competition; full-length beta-catenin with biotin-TCF4(10-53) probe as competitor
Method: Equal volume of the titrated peptide was added to the plate and incubated for 15 minutes at 20° C. Then 4 uL of donor and 4 uL acceptor beads at 10 ug/mL were added to the plate, for a 16 uL reaction pool and protected from light for 60 minutes at 20° C. prior to read. Reads were performed on a CLARIOstar plate reader (BMG Labtech) in duplicate, and data were fitted to a 1:1 binding model with hill slope using an in-house script. All provided concentrations are final concentrations.

[2] = target: T2, full-length beta-Catenin (Uniprot ID …); test: fluorescence polarization competition; full-length beta-catenin with 5FAM-TCF4(10-53) probe as competitor
Method: The plate was incubated protected from light for 60 minutes at 20° C. prior to read. Reads were performed on a CLARIOstar plate reader (BMG Labtech) in duplicate, and data were fitted to a 1:1 binding model with hill slope using an in-house script. All provided concentrations are final concentrations.

NanoBRET Abs IC50 (B-cat-Halo) [nM]	EC50 [1] [nM]	EC50 [2] [nM]	Binder
16400	–	–	Ac-[αAllylPro]D[tBuAla][B5(3)]D[Phe(4-COOH)]AAFF[PyrS2][3Thi][Bta]Q-NH2 (staple 1-4, 4-11) [I-850]
–	116	1760	Ac-[αAllylPro]DI[B5(5)]DDAAFQ[S8]FWH-NH2 (staple 1-4, 4-11, stapled peptide) [I-174]
–	328	1640	Ac-[Aib]DI[RdN]DEAAFQ[S7]FW-NH2 (staple 4-11, stapled peptide composition) [I-147]
–	86.5	2160	Ac-[αAllylPro]DA[B5(16)]DEAAFV[S8]F[Trp(7-F)]Q-NH2 (staple 1-4, 4-11, stapled peptide composition) [I-166]
–	116	1760	Ac-[αAllylPro]DI[B5(5)]DDAAFQ[S8]FWH-NH2 (staple 1-4, 4-11, stapled peptide) [I-175]
–	–	5000	XDAXDXAAFVXFWQ (not fully specified; as printed: Ac-PL3-Asp-Ala-B5-Asp-EtGA-Ala-Ala-Phe-Val-S8-Phe-Trp-Gln-NH2; N-terminal acetyl, C-terminal amide; PL3(1), B5(4), EtGA(6), S8(11); staples PL3-B5 and B5-S8 by olefin metathesis, stapled peptide) [I-172]
7600	–	–	Ac-[αAllylPro]D[tBuAla][B5(3)]D[Phe(4-COOH)]AAFL[PyrS2][3Thi][Bta]Q-NH2 (staple 1-4, 4-11) [I-851]
–	934	2270	Ac-[αAllylPro]DA[B5(19)]DEAAFV[S8]F[2Nal]Q-NH2 (staple 1-4, 4-11, stapled peptide composition) [I-140]
47900	–	–	Ac-[αAllylPro]D[tBuAla][B5(3)]DYAAFN[PyrS2″][3Thi][Bta]Q-NH2 (staple 1-4, 4-11) [I-842]
23800	–	–	Ac-[αAllylPro]D[tBuAla][B5(3)]DNAAFN[PyrS2″][3Thi][Bta]H-NH2 (staple 1-4, 4-11) [I-837]
41900	–	–	Ac-[αAllylPro]D[tBuAla][B5(3)]DQAAFN[PyrS2″][3Thi][Bta]H-NH2 (staple 1-4, 4-11) [I-839]
–	398	2770	Ac-ADI[RdN″]DEAAFQ[S7]FW-NH2 (staple 4-11, stapled peptide composition) [I-148]
–	66	146	Ac-[αAllylPro]DA[B5(4)]DEAAFV[S8]F[Bta]Q-NH2 (staple 1-4, 4-11, stapled peptide composition) [I-144]
34400	–	–	Ac-[αAllylPro]D[tBuAla][B5(3)]D[Cit]AAFN[PyrS2″][3Thi][Bta]H-NH2 (staple 1-4, 4-11) [I-841]
–	278	1870	Ac-[αAllylPro]DA[B5(4)]DEAAFV[S8]FWA-NH2 (staple 1-4, 4-11, stapled (stitched) peptide composition) [I-135]
